Target: T1, SARS-CoV-2 spike stem helix peptide (residues 1146-1159), displayed on yeast (SARS-CoV-2)
T1 chain: DSFKEELDKYFKNH
Test: flow cytometry on cells
Settings: partners not purified

B1: S2P6 in single-chain variable fragment (scFv) format (scFv, V domains shown)
VH: EVQLVQSGAEVKKPGASVKVSCKASGYTFTSQYMHWVRQAPGQGLEWIGIINPSGVHTSYAQKFQGRVTLTRDTSTSTLYMELSSLRSEDTAVYYCARGSPKGAFDYWGQGTLVTVSS
VL: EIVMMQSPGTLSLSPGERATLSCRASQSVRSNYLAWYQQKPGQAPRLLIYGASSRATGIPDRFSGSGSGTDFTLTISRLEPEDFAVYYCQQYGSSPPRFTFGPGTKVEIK
notes: not shown: HA, C-terminal, kept
binding result: binds
